In US20260209386A1 (MYTHIC THERAPEUTICS, published 2026):

T1: Human PTK7/CCK4 Protein, His Tag, Acro Biosystems PT7-H52H3 (human, UniProt Q13308 31-704)
T1 construct: bought protein; also called Human PTK7 Protein, His Tag, Acro Biosystems; not shown: His tag
T1 sequence: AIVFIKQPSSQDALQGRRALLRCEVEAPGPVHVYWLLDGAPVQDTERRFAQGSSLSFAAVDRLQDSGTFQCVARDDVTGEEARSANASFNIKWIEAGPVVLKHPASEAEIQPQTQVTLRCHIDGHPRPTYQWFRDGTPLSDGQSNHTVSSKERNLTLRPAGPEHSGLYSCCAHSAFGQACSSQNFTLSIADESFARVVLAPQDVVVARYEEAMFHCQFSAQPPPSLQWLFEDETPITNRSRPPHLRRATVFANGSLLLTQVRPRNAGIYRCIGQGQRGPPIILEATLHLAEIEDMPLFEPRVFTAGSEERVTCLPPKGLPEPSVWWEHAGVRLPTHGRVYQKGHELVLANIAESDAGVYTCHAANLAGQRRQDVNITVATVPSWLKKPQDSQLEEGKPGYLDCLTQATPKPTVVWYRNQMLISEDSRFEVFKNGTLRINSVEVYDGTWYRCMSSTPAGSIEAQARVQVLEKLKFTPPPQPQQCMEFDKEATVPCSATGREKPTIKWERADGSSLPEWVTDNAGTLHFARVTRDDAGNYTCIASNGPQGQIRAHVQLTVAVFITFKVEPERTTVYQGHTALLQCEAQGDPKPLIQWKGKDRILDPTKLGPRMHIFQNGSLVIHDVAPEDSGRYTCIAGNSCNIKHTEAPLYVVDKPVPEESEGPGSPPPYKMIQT

B1: MYT10999 (antibody, V domains shown)
VH: EVQLVESGGGLVQPGGSLRLSCTASGFSLSSYAMGWVRQAPGKGLEWVGFINAGGNTYYANWAKGRFTISRDTSKNTVYLQMNSLRAEDTAVYFCARRYSRASGWYDLWGQGTLVTVSS
VL: EIVMTQSPSTLSASVGDRVIITCQASQSISHYLAWYQQKPGKAPKLLIYAASTLASGVPSRFSGSGSGAEFTLTISSLQPDDFATYYCQSYSYSSGIDYGDVFGQGTKLTVL
notes: IgG
B2: MYT11000 (antibody, V domains shown)
VH: EVQLVESGGGLVQPGGSLRLSCTASGFSLSSYAMGWVRQAPGKGLEWVGFINAGGNTYYANWAKGRFTISRDTSKNTVYLQMNSLRAEDTAVYFCARRYSRASGWYDLWGQGTLVTVSS
VL: EIVMTQSPSTLSASVGDRVIITCQASQSISSHLAWYQQKPGKAPKLLIYAASTLASGVPSRFSGSGSGAEFTLTISSLQPDDFATYYCQSYSYSSGIDYGDVFGQGTKLTVL
notes: IgG
B3: MYT11001 (antibody, V domains shown)
VH: EVQLVESGGGLVQPGGSLRLSCTASGFSLSSYAMGWVRQAPGKGLEWVGFINAGGNTYYANWAKGRFTISRDTSKNTVYLQMNSLRAEDTAVYFCARRYSRASGWYDLWGQGTLVTVSS
VL: EIVMTQSPSTLSASVGDRVIITCQASQSISSYHAWYQQKPGKAPKLLIYAASTLASGVPSRFSGSGSGAEFTLTISSLQPDDFATYYCQSYSYSSGIDYGDVFGQGTKLTVL
notes: IgG
B4: MYT11003 (antibody, V domains shown)
VH: EVQLVESGGGLVQPGGSLRLSCTASGFSLSSYAMGWVRQAPGKGLEWVGFINAGGNTYYANWAKGRFTISRDTSKNTVYLQMNSLRAEDTAVYFCARRYSRASGWYDLWGQGTLVTVSS
VL: EIVMTQSPSTLSASVGDRVIITCQASQSISSYLAWYQQKPGKAPKLLIYHASTLASGVPSRFSGSGSGAEFTLTISSLQPDDFATYYCQSYSYSSGIDYGDVFGQGTKLTVL
notes: IgG
B5: MYT11004 (antibody, V domains shown)
VH: EVQLVESGGGLVQPGGSLRLSCTASGFSLSSYAMGWVRQAPGKGLEWVGFINAGGNTYYANWAKGRFTISRDTSKNTVYLQMNSLRAEDTAVYFCARRYSRASGWYDLWGQGTLVTVSS
VL: EIVMTQSPSTLSASVGDRVIITCQASQSISSYLAWYQQKPGKAPKLLIYAHSTLASGVPSRFSGSGSGAEFTLTISSLQPDDFATYYCQSYSYSSGIDYGDVFGQGTKLTVL
notes: IgG
B6: MYT11006 (antibody, V domains shown)
VH: EVQLVESGGGLVQPGGSLRLSCTASGFSLSSYAMGWVRQAPGKGLEWVGFINAGGNTYYANWAKGRFTISRDTSKNTVYLQMNSLRAEDTAVYFCARRYSRASGWYDLWGQGTLVTVSS
VL: EIVMTQSPSTLSASVGDRVIITCQASQSISSYLAWYQQKPGKAPKLLIYAASHLASGVPSRFSGSGSGAEFTLTISSLQPDDFATYYCQSYSYSSGIDYGDVFGQGTKLTVL
notes: IgG
B7: MYT11010 (antibody, V domains shown)
VH: EVQLVESGGGLVQPGGSLRLSCTASGFSLSSYAMGWVRQAPGKGLEWVGFINAGGNTYYANWAKGRFTISRDTSKNTVYLQMNSLRAEDTAVYFCARRYSRASGWYDLWGQGTLVTVSS
VL: EIVMTQSPSTLSASVGDRVIITCQASQSISSYLAWYQQKPGKAPKLLIYAASTLASGVPSRFSGSGSGAEFTLTISSLQPDDFATYYCHSYSYSSGIDYGDVFGQGTKLTVL
notes: IgG
B8: MYT11012 (antibody, V domains shown)
VH: EVQLVESGGGLVQPGGSLRLSCTASGFSLSSYAMGWVRQAPGKGLEWVGFINAGGNTYYANWAKGRFTISRDTSKNTVYLQMNSLRAEDTAVYFCARRYSRASGWYDLWGQGTLVTVSS
VL: EIVMTQSPSTLSASVGDRVIITCQASQSISSYLAWYQQKPGKAPKLLIYAASTLASGVPSRFSGSGSGAEFTLTISSLQPDDFATYYCQSHSYSSGIDYGDVFGQGTKLTVL
notes: IgG
B9: MYT11013 (antibody, V domains shown)
VH: EVQLVESGGGLVQPGGSLRLSCTASGFSLSSYAMGWVRQAPGKGLEWVGFINAGGNTYYANWAKGRFTISRDTSKNTVYLQMNSLRAEDTAVYFCARRYSRASGWYDLWGQGTLVTVSS
VL: EIVMTQSPSTLSASVGDRVIITCQASQSISSYLAWYQQKPGKAPKLLIYAASTLASGVPSRFSGSGSGAEFTLTISSLQPDDFATYYCQSYHYSSGIDYGDVFGQGTKLTVL
notes: IgG
B10: MYT11014 (antibody, V domains shown)
VH: EVQLVESGGGLVQPGGSLRLSCTASGFSLSSYAMGWVRQAPGKGLEWVGFINAGGNTYYANWAKGRFTISRDTSKNTVYLQMNSLRAEDTAVYFCARRYSRASGWYDLWGQGTLVTVSS
VL: EIVMTQSPSTLSASVGDRVIITCQASQSISSYLAWYQQKPGKAPKLLIYAASTLASGVPSRFSGSGSGAEFTLTISSLQPDDFATYYCQSYSHSSGIDYGDVFGQGTKLTVL
notes: IgG
B11: MYT11018 (antibody, V domains shown)
VH: EVQLVESGGGLVQPGGSLRLSCTASGFSLSSYAMGWVRQAPGKGLEWVGFINAGGNTYYANWAKGRFTISRDTSKNTVYLQMNSLRAEDTAVYFCARRYSRASGWYDLWGQGTLVTVSS
VL: EIVMTQSPSTLSASVGDRVIITCQASQSISSYLAWYQQKPGKAPKLLIYAASTLASGVPSRFSGSGSGAEFTLTISSLQPDDFATYYCQSYSYSSGHDYGDVFGQGTKLTVL
notes: IgG
B12: MYT11021 (antibody, V domains shown)
VH: EVQLVESGGGLVQPGGSLRLSCTASGFSLSSYAMGWVRQAPGKGLEWVGFINAGGNTYYANWAKGRFTISRDTSKNTVYLQMNSLRAEDTAVYFCARRYSRASGWYDLWGQGTLVTVSS
VL: EIVMTQSPSTLSASVGDRVIITCQASQSISSYLAWYQQKPGKAPKLLIYAASTLASGVPSRFSGSGSGAEFTLTISSLQPDDFATYYCQSYSYSSGIDYHDVFGQGTKLTVL
notes: IgG
B13: MYT11023 (antibody, V domains shown)
VH: EVQLVESGGGLVQPGGSLRLSCTASGFSLSSYAMGWVRQAPGKGLEWVGFINAGGNTYYANWAKGRFTISRDTSKNTVYLQMNSLRAEDTAVYFCARRYSRASGWYDLWGQGTLVTVSS
VL: EIVMTQSPSTLSASVGDRVIITCQASQSISSYLAWYQQKPGKAPKLLIYAASTLASGVPSRFSGSGSGAEFTLTISSLQPDDFATYYCQSYSYSSGIDYGDHFGQGTKLTVL
notes: IgG
B14: MYT11093 (antibody, V domains shown)
VH: EVQLVESGGGLVQPGGSLRLSCTASGLSLSSYWMSWVRQAPGKGLEWVGVISAGGNTYYANWAKGRFTISRDTSKNTVYLQMNSLRAEDTAVYFCARGDDGYTNAAYVSNLWGQGTLVTVSS
VL: EIVMTQSPSTLSASVGDRVIITCQASQSISSWLSWYQQKPGKAPKLLIYKASTLASGVPSRFSGSGSGAEFTLTISSLQPDDFATYYCQSYHDSTTIAFGQGTKLTVL
notes: IgG
B15: MYT11103 (antibody, V domains shown)
VH: EVQLVESGGGLVQPGGSLRLSCTASGHSLSTYAMSWVRQAPGKGLEWVGMIYINDNTYYASWAKGRFTISRDTSKNTVYLQMNSLRAEDTAVYFCARDIGISYYIGVSLWGQGTLVTVSS
VL: EIVMTQSPSTLSASVGDRVIITCQASQSIGTRLSWYQQKPGKAPKLLIYGASKLATGVPSRFSGSGSGAEFTLTISSLQPDDFATYYCLGEYSYTTTDGIAFGQGTKLTVL
notes: IgG
B16: MYT11105 (antibody, V domains shown)
VH: EVQLVESGGGLVQPGGSLRLSCTASGFSHSTYAMSWVRQAPGKGLEWVGMIYINDNTYYASWAKGRFTISRDTSKNTVYLQMNSLRAEDTAVYFCARDIGISYYIGVSLWGQGTLVTVSS
VL: EIVMTQSPSTLSASVGDRVIITCQASQSIGTRLSWYQQKPGKAPKLLIYGASKLATGVPSRFSGSGSGAEFTLTISSLQPDDFATYYCLGEYSYTTTDGIAFGQGTKLTVL
notes: IgG
B17: MYT11106 (antibody, V domains shown)
VH: EVQLVESGGGLVQPGGSLRLSCTASGFSLHTYAMSWVRQAPGKGLEWVGMIYINDNTYYASWAKGRFTISRDTSKNTVYLQMNSLRAEDTAVYFCARDIGISYYIGVSLWGQGTLVTVSS
VL: EIVMTQSPSTLSASVGDRVIITCQASQSIGTRLSWYQQKPGKAPKLLIYGASKLATGVPSRFSGSGSGAEFTLTISSLQPDDFATYYCLGEYSYTTTDGIAFGQGTKLTVL
notes: IgG
B18: MYT11107 (antibody, V domains shown)
VH: EVQLVESGGGLVQPGGSLRLSCTASGFSLSHYAMSWVRQAPGKGLEWVGMIYINDNTYYASWAKGRFTISRDTSKNTVYLQMNSLRAEDTAVYFCARDIGISYYIGVSLWGQGTLVTVSS
VL: EIVMTQSPSTLSASVGDRVIITCQASQSIGTRLSWYQQKPGKAPKLLIYGASKLATGVPSRFSGSGSGAEFTLTISSLQPDDFATYYCLGEYSYTTTDGIAFGQGTKLTVL
notes: IgG
B19: MYT11108 (antibody, V domains shown)
VH: EVQLVESGGGLVQPGGSLRLSCTASGFSLSTHAMSWVRQAPGKGLEWVGMIYINDNTYYASWAKGRFTISRDTSKNTVYLQMNSLRAEDTAVYFCARDIGISYYIGVSLWGQGTLVTVSS
VL: EIVMTQSPSTLSASVGDRVIITCQASQSIGTRLSWYQQKPGKAPKLLIYGASKLATGVPSRFSGSGSGAEFTLTISSLQPDDFATYYCLGEYSYTTTDGIAFGQGTKLTVL
notes: IgG

What follows are binders tested against T1, Human PTK7/CCK4 Protein, His Tag, Acro … (assay: BLI, antibody on anti-human Fc sensor, 50 nM PTK7).
B1: binds. B2: binds. B3: binds. B4: binds. B5: binds. B6: binds. B7: binds. B8: binds. B9: binds. B10: binds. B11: binds. B12: binds. B13: binds. B14: binds. B15: binds. B16: binds. B17: binds. B18: binds. B19: binds.
